These results are taken from patent US20080274950A1 (BABRAHAM INSTITUTE, published 2008).

The target in assay [1] is T1, mouse N-cadherin on L cells after removal of the prodomain with trypsin (mouse, UniProt P15116 160-906).
T1 construct: whole, on cells; Removal of the prodomain was almost complete by western blot; also called L cells after treatment; trypsin-treated L cell transfectants
T1 sequence (looked up): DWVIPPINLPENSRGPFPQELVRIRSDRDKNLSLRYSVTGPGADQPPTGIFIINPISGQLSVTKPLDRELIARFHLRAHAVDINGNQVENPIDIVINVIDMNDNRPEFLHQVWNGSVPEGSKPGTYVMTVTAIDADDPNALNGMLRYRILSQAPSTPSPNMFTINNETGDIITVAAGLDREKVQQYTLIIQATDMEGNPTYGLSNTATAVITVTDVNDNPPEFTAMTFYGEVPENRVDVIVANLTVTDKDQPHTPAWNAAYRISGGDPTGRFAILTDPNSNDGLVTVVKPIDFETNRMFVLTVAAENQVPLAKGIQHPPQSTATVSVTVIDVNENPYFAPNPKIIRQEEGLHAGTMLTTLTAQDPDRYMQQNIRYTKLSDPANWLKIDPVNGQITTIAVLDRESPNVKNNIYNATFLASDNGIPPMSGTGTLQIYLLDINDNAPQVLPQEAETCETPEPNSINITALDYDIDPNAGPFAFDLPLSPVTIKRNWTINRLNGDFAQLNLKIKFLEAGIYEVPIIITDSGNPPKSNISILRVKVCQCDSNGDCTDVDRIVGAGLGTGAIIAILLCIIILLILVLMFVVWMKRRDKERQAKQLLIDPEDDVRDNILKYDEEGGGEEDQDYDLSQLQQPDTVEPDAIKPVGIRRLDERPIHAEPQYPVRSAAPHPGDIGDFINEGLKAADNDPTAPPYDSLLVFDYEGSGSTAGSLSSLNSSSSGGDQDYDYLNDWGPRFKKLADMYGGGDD
The assay is described as follows: adhesion of trypsin-treated L cell transfectants to coated N-cadherin Fc. The protocol:
Adhesion tests were conducted substantially as described in Example 1. Briefly, K562 Cells or L cells transfected with wild type or mutant N-cadherin were allowed to settle for 45 minutes at 37° C. onto N-cadherin Fc fusion proteins coated at 1 μg/ml to a 96 well plate. Non-adherent cells were then washed off and residual adherent cells were quantitated by measuring acid phosphatase activity. Assays were conducted in quadruplicate and results are expressed as % cells adhering +/−SEM.
L cells expressing mouse N-cadherin with an uncleaved prodomain (see Koch et al., 2004) were obtained from Dr Weisong Shan (Montreal Neurological Institute). The normal furin cleavage site, RQKR, had been replaced with a Factor Xa site, IEGR, to give the correct N-terminus after digestion. […] L cells suspended in HBSS containing 0.1% BSA were treated with 0.01% trypsin (Sigma, Type XI) in the presence of 2 mM Ca²⁺ for 10 minutes at 37° C. and the digestion was then quenched with soyabean trypsin inhibitor, 0.5 mg per ml (Sigma, Type I-S). Cells were then washed and tested for adhesion to N-cadherin Fc-fusion protein. To check for complete removal of the prodomain, the cells were lysed in SDS sample buffer and the cadherin analysed by SDS PAGE under reducing conditions on a 4-12% gradient gel. […]

The target of assay [2] is T2, human N-cadherin naturally expressed on DX3 melanoma cells (human, UniProt P19022 160-906).
T2 construct: also called DX3 Cells; N-cadherin+ve DX3 melanoma cells
T2 sequence: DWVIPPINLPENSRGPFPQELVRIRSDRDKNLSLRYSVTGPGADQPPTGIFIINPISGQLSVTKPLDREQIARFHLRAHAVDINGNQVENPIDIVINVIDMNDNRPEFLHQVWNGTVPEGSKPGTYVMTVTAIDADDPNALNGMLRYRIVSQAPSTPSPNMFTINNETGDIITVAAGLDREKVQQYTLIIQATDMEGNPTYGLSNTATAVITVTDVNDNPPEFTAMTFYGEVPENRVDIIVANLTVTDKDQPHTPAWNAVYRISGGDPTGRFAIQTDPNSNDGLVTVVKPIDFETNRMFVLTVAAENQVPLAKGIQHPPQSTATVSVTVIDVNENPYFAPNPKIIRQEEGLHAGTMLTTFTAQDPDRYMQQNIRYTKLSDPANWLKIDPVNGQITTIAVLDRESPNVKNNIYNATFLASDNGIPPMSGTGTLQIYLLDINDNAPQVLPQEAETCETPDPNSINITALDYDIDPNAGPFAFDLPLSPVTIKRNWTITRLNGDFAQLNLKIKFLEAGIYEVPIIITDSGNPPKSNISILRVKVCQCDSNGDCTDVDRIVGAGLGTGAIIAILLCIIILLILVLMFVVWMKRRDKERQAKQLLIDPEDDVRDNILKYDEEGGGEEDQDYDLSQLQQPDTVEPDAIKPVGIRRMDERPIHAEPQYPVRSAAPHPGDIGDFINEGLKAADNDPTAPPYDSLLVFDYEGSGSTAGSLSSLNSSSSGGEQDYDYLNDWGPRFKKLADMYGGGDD
The assay is described as follows: adhesion of DX3 cells to coated N-cadherin-Fc. The protocol: Monomeric or dimeric N-cadherin-Fc fusion protein in Cos cell supernatants was added as described for the ELISA assay. DX3 Cells, a human melanoma cell line which expresses N-cadherin, were dissociated with Cell Dissociation Solution (Sigma, code C5789), resuspended in HBSS with 2% FCS and assessed for adhesion to wild type or mutant N-cadherin-Fc as previously described (Corps et al., 2001). Microscopic examination established that the cells were present as a single cell suspension as they settled onto the plate. For assays conducted in reducing conditions, 10 mM DTT was present during the adhesion and washing steps. Determinations were conducted in triplicate and results are presented as mean +/−sem.

B1: wild type chicken N-cadherin-Fc fusion protein, dimeric (linked by disulphide bonds at the Ig hinge region) (Fc fusion, UniProt P10288 165-729, looked up)
chain: DWVIPPINLPENSRGPFPQELVRIRSDRDKSLSLRYSVTGPGADQPPTGIFIINPISGQLSVTKPLDREQIASFHLRAHAVDVNGNQVENPIDIVINVIDMNDNRPEFLHQVWNGTVPEGSKPGTYVMTVTAIDADDPNAQNGMLRYRILSQAPSSPSPNMFTINNETGDIITVAAGLDREKVQQYTLIIQATDMEGNPTYGLSNTATAVITVTDVNDNPPEFTAMTFYGEVPENRVDVIVANLTVTDKDQPHTPAWNARYQMTGGDPTGQFTILTDPNSNDGLVTVVKPIDFETNRMFVLTVAAENQVPLAKGIQHPPQSTATVSITVIDVNESPYFVPNPKLVRQEEGLLAGSMLTTFTARDPDRYMQQTSLRYSKLSDPANWLKIDPVNGQITTTAVLDRESIYVQNNMYNATFLASDNGIPPMSGTGTLQIYLLDINDNAPQVNPKEATTCETLQPNAINITAVDPDIDPNAGPFAFELPDSPPSIKRNWTIVRISGDHAQLSLRIRFLEAGIYDVPIVITDSGNPHASSTSVLKVKVCQCDINGDCTDVDRIVGAGLGTG
notes: extracellular domain; also called dimeric N-cadherin-Fc; wild type N-cadherin; not shown: hinge region, CH2 and CH3 domains of human IgG1 heavy chain (vector pIgSig)
As for B1, the binding result in assay [1] and in assay [2] was “binds” throughout.
